Key:
Assay in all cases: FRET
Ac-NSFSQ-H = target: Ac-NSFSQ-H
Ac-NSTSQ-H = target: Ac-NSTSQ-H
Ac-ESTLQ-H = target: Ac-ESTLQ-H

B1: SARS-CoV main protease (Mpro), P0C6X7 (protein)
chain: SGFRKMAFPSGKVEGCMVQVTCGTTTLNGLWLDDTVYCPRHVICTAEDMLNPNYEDLLIRKSNHSFLVQAGNVQLRVIGHSMQNCLLRLKVDTSNPKTPKYKFVRIQPGQTFSVLACYNGSPSGVYQCAMRPNHTIKGSFLNGSCGSVGFNIDYDCVSFCYMHHMELPTGVHAGTDLEGKFYGPFVDRQTAQAAGTDTTITLNVLAWLYAAVINGDRWFLNRFTTTLNDFNLVAMKYNYEPLTQDHVDILGPLSAQTGIAVLDMCAALKELLQNGMNGRTILGSTILEDEFTPFDVVRQCSGVTFQ
Binder B1 has a Ki (Ac-NSFSQ-H) of 72.7 µM, a Ki (Ac-NSTSQ-H) of 41 µM and a Ki (Ac-ESTLQ-H) of 8.27 µM.

From PMC7114241
